Broadly, the Kd is a measure of binding affinity in units of concentration. Read a low Kd as higher affinity.

Experiment [1] deals with fluorescently labeled CaV1.2 IQ peptide Y1657D (UniProt P15381). Description: fluorescence polarisation.
The target of experiment [2] is CaV1.2 IQ motif peptide F1658A (UniProt P15381). Description: ITC. (In general: ITC needs no label: the signal is the heat of the interaction.)
The target in experiment [3] is CaV1.2 IQ motif peptide F1658D (UniProt P15381). As to the kind of experiment: ITC.
Experiment [4] addresses CaV1.2 IQ motif peptide I1654A (UniProt P15381). As to the kind of experiment: ITC.
The target of experiment [5] is CaV1.2 IQ motif peptide Y1649A (UniProt P15381). Description: ITC.
In experiment [6] the target is CaV1.2 IQ motif peptide Y1657D (UniProt P15381). As to the kind of experiment: ITC.
Experiment [7] addresses fluorescently labeled CaV1.2 IQ peptide K1662E (UniProt P15381). As to the kind of experiment: fluorescence polarisation. On the technique in general: In fluorescence polarisation assays a small probe gives low polarisation when free and higher when bound to something large.
Experiment [8] addresses fluorescently labeled CaV1.2 IQ peptide, wildtype (UniProt P15381). As to the kind of experiment: fluorescence polarisation.

“calmodulin, wild type, Ca2+-free (apoCaM) (from UniProt P0DP23 1-149) (natural protein)” yielded an equilibrium dissociation constant (Kd) in experiment [1] of 60 µM.
Consider “calmodulin mutant D21A/D23A/D25A/E32Q/D57A/D59A/N61A/E68Q (CaM12’), Ca2+ bound at EF3 and EF4 (from UniProt P0DP23 1-149) (natural protein)”, for which the dissociation constant (Kd) in experiment [2] was 0.032 µM; in experiment [3], 4 µM; in experiment [4] it was 0.06 µM; in experiment [5], 0.026 µM; in experiment [6], 8 µM; in experiment [7], < 0.1 µM. Also, in experiment [8], the Kd was < 0.1 µM.

The record behind these values is article doi:10.1101/2022.06.24.497440.
